We go through 3 substances from US6824783.

For this assay, the target named is viral gp41 (HIV-1 transmembrane protein) of HIV-1IIIB (HIV-1 IIIB). Briefly: cell-based or functional assay.

In the case of “M41-P (M41 with an Ile to Pro mutation at position 578) (from UniProt P03377 540-686)”, the Cell fusion (IC90) came out at 0.083 µM and the HIV infectivity (IC90) amounted to 0.066 µM.
The matching figures for “M41-PΔ178 (M41-P from which the DP-178 region has been deleted; gp41 residues 540-642 with Ile578Pro) (from UniProt P03377 540-642)”: greater than 50 µM and greater than 8 µM.
The corresponding values for “M41 (maltose binding protein fused to the extracellular domain of HIV-1 gp41, residues 540-686) (from UniProt P03377 540-686)” are greater than 50 µM and greater than 16 µM.
